Results as given in the Immune Epitope Database (IEDB).

Key:
[1] = target: HLA-A*11:01; assay: IEDB peptide-MHC binding, purified MHC/direct/fluorescence; filed as Kd, often an IC50 or EC50 that approximates it; ≥ and ≤ were set here for values at or beyond the usual limits of such assays
[2] = target: HLA-B*27:05; assay: as above; details: source organism: Homo sapiens
[3] = target: HLA-A*01:01; assay: as above; details: source organism: Homo sapiens
[4] = target: HLA-A*03:01; assay: as above; details: source organism: Homo sapiens
[5] = target: HLA-A*23:01; assay: IEDB peptide-MHC binding, purified MHC/competitive/radioactivity; filed as Kd, often an IC50 or EC50 that approximates it; ≥ and ≤ were set here for values at or beyond the usual limits of such assays
[6] = target: HLA-A*24:02; assay: as above
[7] = target: HLA-A*29:02; assay: as above
[8] = target: HLA-A*01:01; assay: as above
[9] = target: HLA-A*30:02; assay: as above
[10] = target: HLA-A*26:01; assay: as above
[11] = target: HLA-B*08:01; assay: as above
[12] = target: HLA-A*02:01; assay: IEDB peptide-MHC binding, purified MHC/competitive/fluorescence; filed as Kd, often an IC50 or EC50 that approximates it; ≥ and ≤ were set here for values at or beyond the usual limits of such assays
[13] = target: HLA-B*58:01; assay: IEDB peptide-MHC binding, purified MHC/direct/fluorescence; filed as Kd, often an IC50 or EC50 that approximates it; ≥ and ≤ were set here for values at or beyond the usual limits of such assays; details: source organism: SARS-CoV1
[14] = source organism: Mammarenavirus brazilense
[15] = source organism: SARS coronavirus Tor2
[16] = source organism: Lassa virus Josiah
[17] = source organism: Mammarenavirus guanaritoense

Sequence | Kd [5, 15] | Kd [6, 15] | Kd [7, 15] | Kd [8, 15] | Kd [9, 15] | Kd [10, 15] | further results
GRIDKPILK | – | – | – | – | – | – | Kd ([1]; source organism: Homo sapiens): 8.15 µM; Kd [2]: 0.79 µM; Kd [3]: ≥ 53.5 µM; Kd [4]: 13.5 µM
GSDDIRRLV | – | – | – | – | – | – | Kd [5, 14]: ≥ 77.7 µM; Kd [6, 14]: ≥ 77.5 µM; Kd [7, 14]: ≥ 78.9 µM; Kd [8, 14]: ≥ 44.5 µM; Kd [9, 14]: ≥ 76.9 µM; Kd [10, 14]: ≥ 77.9 µM
HHANEYRQY | ≥ 77.8 µM | ≥ 33.4 µM | 12.7 µM | ≥ 78.1 µM | 6.96 µM | ≥ 102 µM | –
HMVVKSALL | 13.9 µM | 12.2 µM | 0.511 µM | 15.1 µM | 0.954 µM | 13.1 µM | –
HSYGIDLKSY | ≥ 70 µM | ≥ 56.4 µM | 0.0292 µM | 0.0806 µM | 0.00712 µM | 0.451 µM | –
ICLSGDGWPY | – | – | – | – | – | – | Kd [5, 16]: ≥ 70 µM; Kd [6, 16]: ≥ 70.3 µM; Kd [7, 16]: 0.371 µM; Kd [8, 16]: 6.32 µM; Kd [9, 16]: 0.678 µM; Kd [10, 16]: ≥ 69.7 µM
IFFASFYYIW | 0.000529 µM | 0.0243 µM | 0.0316 µM | 1.27 µM | 12.1 µM | 1.37 µM | –
IGMNSRSTSL | – | – | – | – | – | – | Kd ([11]; source organism: Dengue virus 2 Jamaica/1409/1983): 0.107 µM
IIIPFIAYFV | – | – | – | – | – | – | Kd ([12]; source organism: Variola virus): 0.0505 µM
ILHLILWIL | – | – | – | – | – | – | Kd ([12]; source organism: Influenza A virus (A/Memphis/1/1978(H1N1))): 6 µM
ILSDDAVVCY | ≥ 70 µM | ≥ 70.3 µM | 0.32 µM | 0.0102 µM | 2.1 µM | ≥ 38.8 µM | –
INYCLDFLF | – | – | – | – | – | – | Kd [5, 17]: 0.0565 µM; Kd [6, 17]: 1.27 µM; Kd [7, 17]: 0.125 µM
KLLRRPFSL | – | – | – | – | – | – | Kd ([11]; source organism: Vaccinia virus WR): 0.000362 µM
KTTFKPNTW | – | – | – | – | – | – | Kd ([1]; source organism: SARS-CoV1): ≥ 32.6 µM; Kd [13]: 0.157 µM
LAAEWVLAY | ≥ 40.3 µM | ≥ 41.1 µM | 0.00047 µM | 0.0355 µM | 0.0163 µM | 0.0752 µM | –
